According to the supplement of paper PMC12042874:
± gives the uncertainty stated by the source.

Test: amyloid nucleation score (Sup35N fusion, yeast selection) (log enrichment); library NNK2; higher = more nucleation; inactive = no reads after selection
Summary of the method: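 The nucleation score is the DiMSum log enrichment of output over input reads, centred on the mode score of non-aggregating sequences. Only sequences with 100 or more input reads were scored, using Illumina sequencing of input and output plasmid inserts. Psi-negative yeast expressing Sup35N fused to peptides of 20 random codons were induced 24 hours with 100 μM copper sulfate and grown 7 days at 30°C on medium lacking adenine and uracil.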

Row | Substance | amyloid nucleation score
1 | FGICLVMRFLWYESSTPWED | -0.446 ± 1
2 | FGKPGPRFLSSPGFSYP | 0.382 ± 0.51
3 | FGLLYYAYNRFMLARINGHT | -0.261 ± 1.1
4 | FGNFLLSITII | 2.4 ± 0.062
5 | FGNRRSCHDIRSWIDRYLVR | 1.69 ± 0.52
6 | FGSVRASGISDFGRMDHGTG | -0.079 ± 0.76
7 | FGYHGSYMWYAFQGHYNKGY | 0.743 ± 0.42
8 | FHAKRTINMNGATVQYGLYA | -0.354 ± 0.76
9 | FHCVVVYNNRQMCSVTKDSS | 7.962 ± 0.031
10 | FHGGNFATDWFLWFINWEVA | -0.259 ± 0.65
11 | FHTNCYKIMMSGRHFHVSFD | 8.932 ± 0.046
12 | FIADYYGGKTHGNLMSALTC | 1.06 ± 0.53
13 | FIAFFSWFFGWWRKMQAQAL | inactive
14 | FIAYRFWFWKGVSASKEHGQ | 0.433 ± 0.62
15 | FICALTMYICSLY | 7.389 ± 0.027
16 | FICSAYFECRRDSYEFFVGC | inactive
17 | FICVCIVKNKGMGRPCN | 2.72 ± 0.1
18 | FIDFGVVVSWVL | 0.985 ± 0.3
19 | FIDLYLRFWVCTSFQCAHSI | inactive
20 | FIGCKEHNILNSMKRVD | -0.594 ± 1.1
21 | FIIRYLYYKS | inactive
22 | FIITNWQVSFRL | 4.383 ± 0.042
23 | FIKVFCSLRVDNQVRYRKRL | 2.75 ± 0.1
24 | FILQELCWPVLSSIHFGNVA | -1.15 ± 0.36

Row | Substance | amyloid nucleation score
25 | FINSD | inactive
26 | FINSVVKLLLGNDMSCYSCH | 5.65 ± 0.081
27 | FIPEERDIWGYAPGNCIFFR | -1.77 ± 0.54
28 | FIRIVSFMRWHATTSALAIA | 0.106 ± 0.36
29 | FISTGRHTICDIVAHNADLF | -0.305 ± 0.8
30 | FITEDLVRAFANYVND | inactive
31 | FIVSDSRCVGNVTNGQSVLS | -0.97 ± 0.63
32 | FIWSLRGDDRSCLRLSSLQT | -1 ± 0.63
33 | FKAERSFLLSRYILKREGSQ | -0.972 ± 0.34
34 | FKFVIYRFIFHPSEVPKGD | 0.057 ± 1.1
35 | FKFYGFFD | inactive
36 | FKFYYVYYDITFYEC | -0.454 ± 0.28
37 | FKINESSYVLWDGSSYCRAG | -0.711 ± 1.1
38 | FKLICTRSWLRLG | 3.91 ± 0.056
39 | FKNLAFTFNLQCL | 6.472 ± 0.051
40 | FKNRGLLICFEEEHLCAKRR | -1.05 ± 0.78
41 | FKNTIV | -0.343 ± 0.56
42 | FKSVLWCKFLTDIG | 6.04 ± 0.064
43 | FKSVSRSVALLRYPCLPKFS | -0.47 ± 0.74
44 | FKVRIVGPLTAGMVE | -1.01 ± 0.34
45 | FLAGVSVFWSYCDSTNLSNQ | -0.111 ± 0.29
46 | FLCVTISLDNSVACLPLRYS | 0.532 ± 0.66
47 | FLCVYDFVVRNIKGIVLRLH | 0.294 ± 0.8
48 | FLFAKYGSIIDTSVVDRLAR | 0.979 ± 0.5

Row | Substance | amyloid nucleation score
49 | FLFRKYWLTNRWLFMFKEFA | 0.196 ± 0.65
50 | FLFYTFRLRVFFLNCNSEDW | -1.97 ± 0.54
51 | FLGCYGLNCVSWKGMMSTPL | 4.31 ± 0.072
52 | FLGKDWYVVTSVVKYTNAFF | 0.104 ± 0.45
53 | FLIKAKGFYSSLLATGGIEK | inactive
54 | FLISSMHWYCHKPCWGFLGQ | -0.569 ± 0.79
55 | FLLPIWGSNHNTLNFR | -0.547 ± 1.1
56 | FLLRIWTACVLFACKYRGIR | inactive
57 | FLLRVSSSTKTRRSSGVDL | 3.69 ± 0.095
58 | FLLTKSRCLEVFA | 4.68 ± 0.065
59 | FLNHE | inactive
60 | FLNHYWLYFQP | 5.353 ± 0.044
61 | FLSVARPTF | inactive
62 | FLTGDFSAHMNLLIWIFEMS | 5.669 ± 0.05
63 | FLTLPVSPSTQFISDRGSAL | 2.64 ± 0.13
64 | FLVENCC | -0.39 ± 0.64
65 | FLVFVLLGDR | 6.23 ± 0.07
66 | FLVFYLVCGSGLYMNNGQFF | -0.908 ± 0.41
67 | FLVLIQRKAQGITLQREGTW | 5.84 ± 0.069
68 | FLVMGLRYS | 5.407 ± 0.052
69 | FLVYTWSFRNSCRPDLKVVE | 0.126 ± 0.8
70 | FMAWTDSLIYKHAICAATL | -0.031 ± 0.39
71 | FMPSVFMYSLVVFRYVVYMS | -1.07 ± 0.78
72 | FMRQMLLVLMPWCQRRWACL | -0.382 ± 0.32

Row | Substance | amyloid nucleation score
73 | FMTFK | 3.14 ± 0.13
74 | FMVQSVFTKLGPSQAFRVHP | -0.14 ± 1
75 | FNATIVDRDLRSRGQNRSLQ | 0.362 ± 0.65
76 | FNDLMYVNYLLCMVH | 4.04 ± 0.095
77 | FNDSPSYWFSHYIAARSSVE | -0.37 ± 0.36
78 | FNFIIAQE | -1.1 ± 1.1
79 | FNGCFSCTMG | 8.109 ± 0.055
80 | FNHLRSARILPGFFSFSRFK | -1.35 ± 0.54
81 | FNINSPTALSYFMVLEVPLV | 2.42 ± 0.12
82 | FNKDMSNKFNSDKGELSSFM | inactive
83 | FNLAPLMVIMPGIMGWGLLG | 1.67 ± 0.16
84 | FNMFWVLGFTSRGTRGYSTS | 3.9 ± 0.051
85 | FNNVILSRV | -1.5 ± 0.61
86 | FNSRL | -0.208 ± 1
87 | FNWDNFSKLVAKNNLVISKL | inactive
88 | FNYYLCTPIKVGTCPCVDFR | 7.17 ± 0.075
89 | FPARFHACLDYKWFGTGRPS | 2.41 ± 0.12
90 | FPIVFTTKCDIFLSYSLLPS | 1.7 ± 0.13
91 | FPLLNCKRACLKAAVEAHYR | 0.076 ± 0.61
92 | FPLRLLWSGGALCATPPIRV | 0.655 ± 0.47
93 | FPVSVTTISPNIYGQPNTWC | -1.41 ± 0.45
94 | FQCDVSCSVYKSWEMFQGIT | 0.164 ± 0.8
95 | FQCSYVWVKLWHILN | -0.887 ± 1.1
96 | FQDTLDLRRLRYWCYPKLGL | -0.69 ± 0.55

Row | Substance | amyloid nucleation score
97 | FQGVVSRYSYYS | 1.81 ± 0.22
98 | FQIMKAYDTLPFLVYPVTGD | -0.117 ± 0.79
99 | FQSDIKVIIMSTCTISGGRY | 1.33 ± 0.25
100 | FRALFSNVVRVDMAMAAGFL | -1.79 ± 0.78
101 | FREGSSIGFVLPTENVLMT | 0.256 ± 1
102 | FRFCHCLEFQVY | 0.126 ± 0.5
103 | FRKCI | 1.25 ± 0.38
104 | FRRFCQDILYICMRKDMVQG | 0.833 ± 0.8
105 | FRRRQNRAHKYGALNYSMGS | inactive
106 | FRTQCHRAMDRASCRVLVRP | inactive
107 | FRVGLLVGISMVDFTLGVNA | 0.416 ± 0.8
108 | FRVSSIWDRLVATLGNMCRS | inactive
109 | FRYERTGRAMSTASVVTTTV | 1.04 ± 0.68
110 | FRYLYVLYGFYMVVTWYLRV | -0.088 ± 0.63
111 | FSIISGCFRNVVDLLRMLNL | -1.2 ± 1.1
112 | FSLFWWMSHITREWISCMCM | -0.895 ± 1.1
113 | FSMMFIL | 3.57 ± 0.075
114 | FSMRFRKVFICKMDIQQAYV | 0.13 ± 1.1
115 | FSNLPGH | 1.98 ± 0.15
116 | FSPIYRHGHKCML | -0.672 ± 0.54
117 | FSPLCYSYV | -1.22 ± 1
118 | FSQFMKLNSRFIRRYMWCVL | -0.891 ± 0.55
119 | FSRTTAHMTLDMYFTGRDGY | 5.79 ± 0.058
120 | FSSFVNREKMFIHFSNVVYF | 1.44 ± 0.1

Row | Substance | amyloid nucleation score
121 | FSSIDPPNTRSAVSFRMTSP | 0.065 ± 0.65
122 | FSVRGRWAHLWMK | 0.443 ± 0.42
123 | FSVTMF | -0.197 ± 0.33
124 | FSVYRETERLGMSFRVRLWM | 5.25 ± 0.073
125 | FSWFDWKGYVLSWIRSYSSE | inactive
126 | FSWVIYYE | -1.27 ± 1.1
127 | FSYMYPRGLLVINMSGVQVN | 1.22 ± 0.17
128 | FTCAYA | inactive
129 | FTFIHFLCVSVHLLNSWS | 0.42 ± 0.56
130 | FTGIRRGLWLS | 0.405 ± 0.56
131 | FTLDNMSLQTRTLMRYE | -0.863 ± 0.49
132 | FTNIGSEYDMTGLNEGSSMP | -0.411 ± 0.29
133 | FTSFCMMKGPGLY | -1.44 ± 1.1
134 | FTTMESDGMVFGL | 3.75 ± 0.061
135 | FTVGSMSGDFWLLCWYLR | 3.09 ± 0.15
136 | FTVRQTKAAGECSSKQWGTL | 3.18 ± 0.098
137 | FTWCRWVFWRNCYNDMEEDA | -1.01 ± 1.1
138 | FTWVYMHNIIFLLGSRLYIK | inactive
139 | FVDYVTCSQYVNIFRDTLGL | -0.677 ± 0.38
140 | FVECILASLWTRFEKIRMAC | -0.108 ± 1.1
141 | FVEIIAKWILTI | 0.033 ± 0.6
142 | FVGTLMDPVSLMKLRW | 0.787 ± 0.31
143 | FVHFMRVAASRNTNFYNLLW | inactive
144 | FVHKSCSAALTTLGTVAD | 4.333 ± 0.042

Row | Substance | amyloid nucleation score
145 | FVKGS | inactive
146 | FVPAVEFVHHFAVWVWRE | 0.072 ± 1.1
147 | FVPFYYKADKLTILSS | inactive
148 | FVTFWDYWSSRGDPMMSYRV | 0.13 ± 0.49
149 | FWALCVASVICYFVRMLSLA | 0.169 ± 0.3
150 | FWCYELDNPDGYLIFLHQPV | inactive
151 | FWGIMNSILTETLL | -1.53 ± 1.1
152 | FWLSSESANYTCFKRYVG | 0.25 ± 0.47
153 | FWRVLLSTLHTIFNMRNNMP | -1.28 ± 0.54
154 | FWSVEMMRHTSSFIFAEWNK | -0.033 ± 0.2
155 | FYCIARERLRMVNFT | -0.845 ± 0.62
156 | FYCLCTTDGICLEDLL | -0.097 ± 1.1
157 | FYESKMGVMINFNWFYDTTS | 6.88 ± 0.069
158 | FYFLLG | 0.587 ± 0.32
159 | FYGQMRSKVLCLFH | -1.02 ± 0.76
160 | FYGRCLTFTAHPSFSRFAR | 0.333 ± 0.61
161 | FYGSEVIMSTDVQGNGEYGA | -0.791 ± 0.62
162 | FYINVRLYARVACRCMRVPC | 5.4 ± 0.076
163 | FYKTLCKLGWAPWS | -0.744 ± 0.32
164 | FYLIIDPIPMDCSGIIVNCY | inactive
165 | FYLLVFDLHDSCL | inactive
166 | FYLNRKRVYLSDGCRAFR | 0.252 ± 0.51
167 | FYLSAFRHVMRASCLDDLSK | inactive
168 | FYLWATTYQCRFFIRYAKFS | 2.97 ± 0.084
